The values that follow come from patent publication US9371393B2, “Class I anti-CEA antibodies and uses thereof” (Immunomedics, Inc., priority 2009, dated 2016).

[ ]: non-standard residue; d: D form. The star is where a group is joined. HSG = histaminyl-succinyl-glycine, O=C(CCC(=O)NCC(=O)*)NCCc1c[nH]cn1; DTPA = O=C(O)CN(CCN(CC(=O)O)CC(=O)O)CCN(CC(=O)O)CC(=O)*

Series [1] in a line: Stability of purified 18F-labeled IMP 272 in water. Format: physicochemical. Conditions: 25° C., 40 min. As for the experimental part:
The labeled peptide was purified by applying the labeled peptide solution onto a 1 cc (30 mg) WATERS® HLB column (Part #186001879) and washing with 300 μL water to remove unbound F-18. The peptide was eluted by washing the column with 2×100 μL 1:1 EtOH/H2O. The purified peptide was incubated in water at 25° C. and analyzed by reverse phase HPLC (not shown). […] After 40 min incubation in water about 17% of the ^18F was released from the peptide, while 83% was retained (not shown).

Series [2] relates to hMN-14×734. The series can be described thus: Antibody binding of 18F-labeled IMP 272 by size exclusion HPLC, hMN-14×734. As for the experimental part: (§1) The peptide (16 μL 2 mM IMP 272, 48 μg) was labeled with ^18F and analyzed for antibody binding by size exclusion HPLC.
A general note: Size exclusion chromatography separates by hydrodynamic size, large species first.

For series [3], the system named is hMN-14×679. The series can be described thus: Antibody binding of 18F-labeled IMP 272 by size exclusion HPLC, hMN-14×679. The method, then:
as §1

Series [4] in a line: Stability of 18F-labeled IMP 272 in PBS. The format is physicochemical. Conditions: room temperature, 150 μL PBS, ~1 hr. As for the experimental part:
F-18 Labeling of IMP 272—A 3 μL aliquot of the aluminum stock solution was placed in a REACTI-VIAL™ and mixed with 50 μL ^18F (as received) and 3 μL of the IMP 272 solution. The solution was heated in a heating block at 110° C. for 15 min and analyzed by reverse phase HPLC. […] An additional 10 μL of the IMP 272 solution was added to the reaction and it was heated again and analyzed by reverse phase HPLC (not shown). […] The remainder of the peptide solution was incubated at room temperature with 150 μL PBS for ˜1 hr and then examined by reverse phase HPLC.

Series [5] has as its target RIIα dimers (DDD) (Homo sapiens, UniProt P13861). Conditions: Alto et al. 2003; read-out: affinity / binding constant for RIIα dimers (DDD); cited from earlier work.
For series [6], the system named is GW-39 human colonic carcinoma. The series can be described thus: GW-39 intrapulmonary micrometastasis model (GW-39iv), survival. Format: in vivo, nude mice. To be noted: cells pretreated with Fab′ 10 μg/mol, 100 μg i.v. 1 day after implantation; untreated 42 days. The method, then: FIG. 7 illustrates an exemplary in vivo micrometastasis study. Top, immunohistochemistry of GW-39 tumor sections stained with a nonspecific antibody (left), MN-14 anti-CEACAM5 (middle), and MN-15 anti-CEACAM6 (right) and photographed at 100×. Bottom, survival of nude mice implanted with 30 μL of a 10% suspension of GW-39 human colonic cancer cells. Mice were implanted with cells that were […] for 30 minutes with MN-3-, MN-15-, or hMN-14-Fab′ (10 μg/mol). Mice also received a single 100 μg dose of the same Fab′ 1 day after cell implantation.
In vivo therapy studies—Female athymic nude mice (6 to 8 weeks old) were purchased from TACONIC® (Germantown, N.Y.). Therapy studies were done using our CEACAM5+/CEACAM6+GW-39 intrapulmonary micrometastasis model, GW-39iv (Sharkey et al., J Natl Cancer Inst 1991, 83:627-32; Blumenthal et al., Cancer Res 1992, 52:6036-44). The GW-39 human colonic carcinoma has been maintained as a serially transplanted signet-ring cell cancer line since 1966 (Goldenberg et al., Transplantation 1966, 4:760-4). […] Body weight was monitored weekly and animal survival recorded. Results were analyzed by the Kaplan-Meier estimated survival curves, and significance was determined with the log-rank comparison of survival curves. Median survival time for each treatment group also was determined. […]

Series [7] deals with tumor cell invasion. The series can be described thus: Collagen-based invasion assay, cell line panel. Also on record: species or system human. As for the experimental part: Collagen-based invasion assay—The assay was done using CHEMICON® Kit (#ECM551, MILLIPORE®, Billerica, Mass.). Tumor cells at 80% confluence and were serum-starved for 18 to 24 hours before the assay was used. Cells were harvested with 5 mol of 2 mmol/L EDTA/PBS per 100-mm dish and incubated at 37° C. for 5 to 15 minutes. Cells were collected into 10 to 20 mol of quenching medium (serum-free DMEM containing 5% BSA) to inactivate trypsin/EDTA from the harvesting buffer. Cells were pelleted, resuspended in quenching medium (1×10^6 cells/mol), and appropriate antibody Fabs were added to individual cell aliquots. Cell invasion potential was determined as follows. Baseline invasion and invasion in the presence of a chemoattractant (10% FBS) were measured after a 72-hour incubation period at 37° C. in a 5% CO2 incubator. The bottom side of the collagen-coated polycarbonate membrane insert of the invasion chamber was placed in 400 μL of cell stain for 20 minutes at room temperature and washed. The dye was extracted and transferred into a 96-well microtiter plate for colorimetric measurements (A560 nm).

Sequence of RIIα dimers (DDD) (P13861 whole entry): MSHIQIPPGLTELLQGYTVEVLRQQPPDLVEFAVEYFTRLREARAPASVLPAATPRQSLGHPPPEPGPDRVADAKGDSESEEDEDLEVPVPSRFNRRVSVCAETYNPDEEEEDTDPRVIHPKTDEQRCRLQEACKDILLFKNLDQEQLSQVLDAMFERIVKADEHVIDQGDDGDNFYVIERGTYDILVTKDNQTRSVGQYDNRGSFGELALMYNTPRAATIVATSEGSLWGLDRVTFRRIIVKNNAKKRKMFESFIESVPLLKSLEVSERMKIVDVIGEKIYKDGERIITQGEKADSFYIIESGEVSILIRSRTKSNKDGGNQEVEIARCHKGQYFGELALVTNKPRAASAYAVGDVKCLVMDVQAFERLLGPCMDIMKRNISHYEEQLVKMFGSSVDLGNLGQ

Turning to “DTPA-Gln-Ala-Lys(HSG)-D-Tyr-Lys(HSG)-NH2 ({DTPA}-QAK(HSG)[dY]K(HSG)-NH2; SMILES C[C@H](NC(=O)[C@H](CCC(N)=O)NC(=O)CN(CCN(CCN(CC(=O)O)CC(=O)O)CC(=O)O)CC(=O)O)C(=O)N[C@@H](CCCCNC(=O)CNC(=O)CCC(=O)NCCc1c[nH]cn1)C(=O)N[C@H](Cc1ccc(O)cc1)C(=O)N[C@@H](CCCCNC(=O)CNC(=O)CCC(=O)NCCc1c[nH]cn1)C(N)=O) [^18F-labeled IMP 272]”, in series [1], the “^18F released from the peptide” value was “about 17%” and the “^18F retained” value was 83%. Besides, the “binding to irrelevant bispecific antibody hMN-14×734” value in series [2] is listed as “did not bind”. Moreover, the “binding to hMN-14×679” value in series [3] is reported as “bound”. For the same molecule, in series [4], the “^18F still attached to the peptide” value is recorded as 42% and the “^18F unbound” value is listed as 58%.
Take QIEYLAKQIVDNAIQQA [AKAP-IS]: the Kd in series [5] was 0.4 nM.

B1: hMN-14 Fab′: Fab′ of MN-14 in its humanized form, hMN-14 or labetuzumab (antibody, chains of the INN, looked up, V domains shown)
VH: EVQLVESGGGVVQPGRSLRLSCSASGFDFTTYWMSWVRQAPGKGLEWIGEIHPDSSTINYAPSLKDRFTISRDNAKNTLFLQMDSLRPEDTGVYFCASLYFGFPWFAYWGQGTPVTVSS
VL: DIQLTQSPSSLSASVGDRVTITCKASQDVGTSVAWYQQKPGKAPKLLIYWTSTRHTGVPSRFSGSGSGTDFTFTISSLQPEDIATYYCQQYSLYRSFGQGTKVEIK
modifications: Fab′
notes: Fab′ of MN-14 in its humanized form, hMN-14 or labetuzumab
B1: the median survival time in series [6] was 49 days. Also, in series [7], the “effect on tumor cell invasion” value is “had no effect on tumor cell invasion in most cell lines”.
